# B1: S1E12: anti-tau clone, Table 11; SEQ ID NO: 218 (protein)
# scFv: QVQLQESGPSLVKPSQTLSLTCTVSGFSLGSNSVGWVRQAPGKAPEWVAGIDTDGEEGYNPALNSRLSITRDTSKSQVSLSLSSVTSEDTAVYYCGRSYRADGLAYGYVQAIDYWGPGLLVTVSSEGKSSGASGESKVDDRVVRTQPSSVSGSLGQRVSITCSGSFIGISSVGWFQQLPGSGLRTIIVASDGRPSGVPDRFSMSKSGNTATLTISSLQAEDEADYFCGSSDRTQYTGVFGSGTRLTVLG
# modifications: S1E12 amino acid sequence
# B2: CB3: anti-tau core clone, Table 10; SEQ ID NO: 370 (protein)
# scFv: QVQLQESGPSLVKPSQTLSLTCTVSGFSLSSVAVNWVRQAPGKVPEWLGGIISNGGTGYNPALKSRLSITRDTSKSQVSLALTHVTTEDTAVYYCGRGVEWEGSMDYLGPGLLVTVSSEGKSSGSGSETKVDDQSVLTQPSSVSGFLGQRVTITCSGSSSNVGAGSYVGWYQQVPGSGLRILIYGATKRASGLPDRFSGSRSGNTATLTISSLQAEDEADYYCVSYQTDFTLVFGSGTRLTVLG
# modifications: CB3 amino acid sequence
# B3: CE3: anti-tau core clone, Table 10; SEQ ID NO: 367 (protein)
# scFv: QVRLQESGPSLVKPSQTLSVTCTVSGFSLISNAVGWVRQAPGKVPESLAGCSSDGKCYYNSALKSRLDITRDTSKNQISLSLSSVTTDDAAVYYCTRGYYPVYGYDYLGTIDYWGPGLLVTVSSEGKSSGASGESKVDDQAVLTQPSSVSGSLGQRVSITCSGSSSNVGRNDVAWFQQLPGSGLRTIIYGTTSRPSGIPDRFSGSKSGVTATLTIDSLQAEDEADYFCASGDSSAINDIFGSGTRLTVLG
# modifications: CE3 amino acid sequence
# B4: NS2A1: anti-tau clone, Table 11; SEQ ID NO: 220 (protein)
# scFv: QVQLQESGPSLVKPSQTLSLTCTVSGFSLSTNSVGWVRQAPGKAPEWVAGIDTDGEEGFNPVLKSRLSITRDTSKSQVSLSLSNVTSEDTAVYYCGRSYRTDGLAYGYVQAIDYWGPGLLVTISSEGKSSGASGESKVDDQSVLTQPSSVSGSPGQTVSITCSGSYIGSSGVGWFQQLPGSGLRTIIVASDGRPSGVPDGFSMSKSGNTATLTISSLQAEDEADYFCGSSDRTQYTGLFGSGTRLTVLG
# modifications: NS2A1 amino acid sequence
# How the values were obtained:
# [1] = tested on: hT40, dGA, dGAE and truncated tau fragments; assay: Binding ELISA / epitope mapping of anti-tau scAbs with truncated tau proteins and 13mer peptides; parameters: species or system human; conditions: for Tau proteins/fragments with positive scAb reactivity: binding ELISA; for Shortest region bound on hT40: incl. 13mer peptides
# Outline: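 Plates coated with 1 μg/ml tau protein, or 5 μg/ml streptavidin then 1 μg/ml biotinylated 13mer peptide; blocked with 2% MPBS. scAbs added at a starting concentration and double-diluted. Bound scAb detected with HRP anti-human C kappa and read as absorbance.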
# [2] = biological target: T1, hT40 (T441, SEQ ID NO: 1) (Homo sapiens, UniProt P10636); assay: Biacore X100 SPR kinetics of scAbs for hT40; format: binding; conditions: Table 23; scAb captured, T441 (hT40) analyte; 1:1 model
# T1 construct: Full length tau (hT40)
# T1 sequence (P10636 1-441 isoform P10636-8): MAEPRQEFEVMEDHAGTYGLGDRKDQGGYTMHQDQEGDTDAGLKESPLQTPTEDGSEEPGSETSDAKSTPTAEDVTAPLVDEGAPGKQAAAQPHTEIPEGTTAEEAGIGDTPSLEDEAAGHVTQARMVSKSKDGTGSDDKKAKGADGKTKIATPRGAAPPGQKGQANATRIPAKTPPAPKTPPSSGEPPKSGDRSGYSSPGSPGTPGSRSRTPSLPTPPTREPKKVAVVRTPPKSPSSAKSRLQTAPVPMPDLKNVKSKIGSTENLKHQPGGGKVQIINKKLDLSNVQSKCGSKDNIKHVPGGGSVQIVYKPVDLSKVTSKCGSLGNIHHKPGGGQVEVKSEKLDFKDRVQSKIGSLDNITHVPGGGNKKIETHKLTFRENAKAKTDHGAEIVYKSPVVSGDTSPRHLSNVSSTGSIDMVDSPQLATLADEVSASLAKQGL
# Method: Surface plasmon resonance (SPR) is widely regarded as the gold standard for real time measurement of protein-protein interactions such as antibody binding. All SPR experiments were carried out using a Biacore X100 machine and HBS EP+ running buffer (GE Healthcare). A ‘capture’ method was followed for affinity measurements, where an anti-human constant kappa chain (HuCk) antibody was conjugated to the surface of a CM5 sensor chip using an amine coupling kit and scAb molecules were immobilised via their HuCk domain. Amine coupling is a very common approach for immobilising the ligand to the chip surface. […] The capture antibody was diluted 1/100 in 10 mM Sodium acetate buffer pH 5.0 and passed over the activated chip surface for a period of at least 420 s. Final ligand immobilisation levels over 12,000 RU were deemed to be satisfactory.
# (§1) Following immobilisation, the level of each scAb to be captured was identified using the standard SPR equation with a theoretical RMax of 100 RU. Analyte MW refers to the molecular weight of hT40 or dGA/dGAE molecules, while ligand MW refers to the molecular weight of the scAbs tested. RL is the desired capture level and S refers to the stoichiometric ratio:
# The scAb to be tested was added only to flow cell 2 so that flow cell 1 could act as a control to subtract any interaction with the analyte and the chip surface. Both single and multi-cycle runs were utilised using wizards developed in the Biacore X100 control software which are both accepted methods of kinetic analysis (Karlsson, R., et al. Analyzing a kinetic titration series using affinity biosensors (2006) Analytical Biochemistry 349:136-47). The multi-cycle protocol was as follows-Three start-up cycles composed of an initial capture, to the desired level, of the scAb to be tested was performed followed by a 30 s injection of glycine buffer pH 2.0 after each cycle to regenerate the chip surface. […] Following three start-up cycles increasing concentrations (0.15625 nM-100 nM) of the target to be tested were added to the chip surface after the desired scAb capture. The target was added for a 120 s association period and 420 s dissociation period followed by another regeneration, 30 s injection of glycine buffer pH 2.0 in between each cycle.
# (§2) The single cycle kinetics protocol was similar and utilised the same level of scAb capture. Three start-up cycles were used followed by 5 increasing concentrations of the analyte (6.25 nM-100 nM) for an association period of 120 s followed by a dissociation period of 420 s for each concentration. In single cycle kinetics the regeneration step was performed only after the final analyte concentration was added. Binding responses were analysed in Biacore X100 evaluation software and data fitted to a 1:1 binding model to obtain kinetic and affinity characterisation.
# dGA (SEQ ID NO: 5) = dGA (SEQ ID NO: 5) (Homo sapiens, UniProt P10636); assay: Biacore X100 SPR kinetics of scAbs for dGA; format: binding; conditions: Table 24, scAb, dGA analyte; for Kd: dissociation rate
# Sequence of dGA (SEQ ID NO: 5) (P10636 614-707): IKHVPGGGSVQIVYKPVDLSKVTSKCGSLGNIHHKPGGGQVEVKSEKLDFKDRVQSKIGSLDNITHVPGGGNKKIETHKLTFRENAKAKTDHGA
# Method: Surface plasmon resonance (SPR) is widely regarded as the gold standard for real time measurement of protein-protein interactions such as antibody binding. All SPR experiments were carried out using a Biacore X100 machine and HBS EP+ running buffer (GE Healthcare). A ‘capture’ method was followed for affinity measurements, where an anti-human constant kappa chain (HuCk) antibody was conjugated to the surface of a CM5 sensor chip using an amine coupling kit and scAb molecules were immobilised via their HuCk domain. Amine coupling is a very common approach for immobilising the ligand to the chip surface. The chip surface has a dextran matrix derivatised with carboxyl groups, which after activation with N-hydroxysuccinimide (NHS) and 1-ethyl-3-(3-dimethylaminopropyl) carbodiimide (EDC), form reactive succinimide esters which allows the covalent capturing of the ligand via any available primary amine groups (e.g. Lysine) on the ligand (in this case anti-HuCk antibody). The capture antibody was diluted 1/100 in 10 mM Sodium acetate buffer pH 5.0 and passed over the activated chip surface for a period of at least 420 s. Final ligand immobilisation levels over 12,000 RU were deemed to be satisfactory.
# as §1
# The scAb to be tested was added only to flow cell 2 so that flow cell 1 could act as a control to subtract any interaction with the analyte and the chip surface. Both single and multi-cycle runs were utilised using wizards developed in the Biacore X100 control software which are both accepted methods of kinetic analysis (Karlsson, R., et al. Analyzing a kinetic titration series using affinity biosensors (2006) Analytical Biochemistry 349:136-47). The multi-cycle protocol was as follows-Three start-up cycles composed of an initial capture, to the desired level, of the scAb to be tested was performed followed by a 30 s injection of glycine buffer pH 2.0 after each cycle to regenerate the chip surface. The regeneration step removed any captured scAb whilst leaving the capture antibody intact and able to repeat the capture for the next cycle. Following three start-up cycles increasing concentrations (0.15625 nM-100 nM) of the target to be tested were added to the chip surface after the desired scAb capture. The target was added for a 120 s association period and 420 s dissociation period followed by another regeneration, 30 s injection of glycine buffer pH 2.0 in between each cycle.
# as §2
# dGAE aggregates = dGAE aggregates (Homo sapiens, UniProt P10636); assay: Epitope occlusion assay: dGAE aggregation with/without LMTM, 423 mAb capture ELISA; format: biochemical; conditions: total and supernatant samples; 423 mAb capture
# Sequence of dGAE aggregates (P10636 614-708): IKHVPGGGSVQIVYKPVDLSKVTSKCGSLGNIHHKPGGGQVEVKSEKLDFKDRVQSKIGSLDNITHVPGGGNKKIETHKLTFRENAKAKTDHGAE
# Method: During dGAE aggregation in vitro, scAb binding regions on dGA/dGAE are ‘hidden’ or ‘occluded’ which leads to a loss of immunoreactivity in aggregation samples. Here we have shown the occlusion of binding regions in aggregated dGAE samples and the recovery of immunoreactivity in the presence of LMTM, a tau-aggregation inhibitor. For preparing the aggregates, 10 μl 10 mM DTT was added to 1000 μl 100 μM dGAE and agitated with/without LMTM (1:5 ratio) at 700 rpm for 24 h at 37° C. Following overnight agitation, one third of each sample was kept aside as ‘total’ and the rest was spun down at 16000×g for 30 min and separated into ‘supernatant’ and ‘pellet’. The pellet was then resuspended in half the original volume for further experiments. […] Doubling dilutions of dGAE aggregate ‘total’, ‘supernatant’ and ‘pellet’ samples at 10 μg/ml starting concentration were added to designated wells in doubling dilutions in 1×PBS. dGAE monomer (non-aggregated) was included as assay control. All double dilutions were done in final volumes of 100 μl. This was left to incubate on lab bench for 1 h followed by the addition of test scAbs at 10 μg/ml. Anti-HuCk HRP labelled secondary antibody was added as described previously and ELISA data generated is represented using the graph below.
# htau40 = biological target: T2, htau40 (Homo sapiens, UniProt P10636); assay: Biacore X100 SPR kinetics of anti-tau mAbs on immobilised htau40; format: binding; conditions: Table 27; mAb format, immobilised htau40
# T2 construct: Full length tau (hT40)
# T2 sequence (P10636 1-441 isoform P10636-8): as the sequence (P10636 1-441 isoform P10636-8) above
# Method: For anti-tau mAb SPR measurements, htau40 was conjugated to the surface of a CM5 sensor chip using amine coupling as explained previously. Briefly, 2 μg/mL htau40 in 10 mM Sodium acetate buffer (pH 4.0) was passed over the activated chip surface (EDC/NHS) in flow cell 2 for a period for 45 s followed by blocking with 1 M ethanolamine-HCl PH 8.5. Flow cell 1 was set up as reference control and blocked simultaneously. Final immobilisation level of htau40 (Rmax) was approximately 250 RU. Following a minimum of three start-up cycles, increasing concentrations (0.78 nM-25 nM) of the mAb in HBS-EP+ buffer was added at a rate of […] to the chip. The mAb was added for a 120 s association period and 600 s dissociation period followed by a regeneration cycle of 30 s injection of glycine buffer pH 1.5 in between each cycle. Binding responses were analysed in Biacore X100 evaluation software and data fitted to a 1:1 binding model to obtain kinetic and affinity characterisation.
# For anti-tau mAb SPR measurements (Biacore X100™) and epitope mapping, the same methodologies described above (see Example 16) were followed. Kinetic rates and equilibrium binding constants of additional anti-tau mAbs and the regions recognised on hT40 are given in the Table 25 below
# [3] = Table 26 summary, top scAbs, residues of hT40
# [4] = residue numbers of SEQ ID NO: 1 (hT40), CDR Tables 1-11
Molecule,"Tau proteins/fragments with positive scAb reactivity ([1]; Table 16, NS, S and M clones)","Shortest region bound on hT40 ([1]; Table 16, NS, S and M clones)","Epitope [1, 3]","Epitope [1, 4]",ka [2] [M⁻¹ s⁻¹],kd [2] [s⁻¹],ka (dGA (SEQ ID NO: 5)) [M⁻¹ s⁻¹],Kd (dGA (SEQ ID NO: 5)) [s⁻¹],"Tau proteins/fragments with positive scAb reactivity ([1]; Table 17, 'C' group scAbs)","Shortest region bound on hT40 ([1]; Table 17, 'C' group scAbs)",immunoreactivity to dGAE aggregation samples prepared in the presence of LMTM (dGAE aggregates),ka (htau40) [M⁻¹ s⁻¹],kd (htau40) [s⁻¹]
B1,"hT40, 297-390 (dGA), 297-391 (dGAE)",297-390,297-390,297-390,385000,0.000319,2.99e+06,0.001627,–,–,–,–,–
B2,–,–,–,360-390,–,–,–,–,"hT40, 297-390 (dGA)",360-390,increase in immunoreactivity,–,–
B3,–,–,331-360,331-360,174500,0.000662,–,–,"hT40, 266-359 (R1-3)",331-360,increase in immunoreactivity,103000,0.001718
B4,"hT40, 297-390 (dGA), 297-391 (dGAE)",–,297-390,297-390,252100,0.0007393,188000,0.00102,–,–,–,893700,0.002621

# From US20250355001A1, “METHOD FOR DETECTING A TAU PROTEIN FRAGMENT IN A SAMPLE” (GTINVENT LIMITED, priority 2022, published 2025)
